Results: PMC7505815, “Estrogen receptor alpha (ERα)–mediated coregulator binding and gene expression discriminates the toxic ERα agonist diethylstilbestrol (DES) from the endogenous ERα agonist 17β-estradiol (E2)” (Cell Biology and Toxicology, 2020)

T1: Polyhistidine (His) tagged ERα ligand binding domain (amino acids 302–552) (UniProt P03372 302-552)
T1 construct: Detected on the array by a penta-His Alexa Fluor 488 antibody; Always tested with E2, DES or solvent (2% DMSO); also called ERα-LBD; source: partly purified from Escherichia coli (Qiagen)
T1 sequence (looked up): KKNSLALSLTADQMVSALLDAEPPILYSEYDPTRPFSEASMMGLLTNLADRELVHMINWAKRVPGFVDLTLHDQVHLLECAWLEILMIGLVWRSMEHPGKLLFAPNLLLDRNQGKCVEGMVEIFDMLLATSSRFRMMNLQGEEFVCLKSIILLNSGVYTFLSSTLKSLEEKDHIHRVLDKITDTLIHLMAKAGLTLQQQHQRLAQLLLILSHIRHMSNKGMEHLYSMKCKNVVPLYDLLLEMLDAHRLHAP


Columns and labels:
[1] = biological target: T1, Polyhistidine (His) tagged ERα ligand …; experiment: peptide or protein array; MARCoNI, PamChip peptide microarray: coregulator motif peptides immobilised; His-ERα-LBD 10 nM (partly purified) in solution with E2 (10^-12 to 10^-5 M), detected with penta-His Alexa Fluor 488 antibody 25 nM; 20 °C; 20 mM Tris-HCl pH 7.5, 500 mM NaCl, 0.2% BSA, 0.05% Tween 20, 2% DMSO; settings: both partners purified
[2] = biological target: T1, Polyhistidine (His) tagged ERα ligand …; experiment: as above; settings: both partners purified; remark: listed apart in the source

binding result [1] | binding result [2] | Binder
binds |  | KDLRCYGVASSHLKTLLKKSKVK (peptide, UniProt P48552 173-195, looked up, Immobilised on the PamChip; source: bought: PamChip peptide microarray, PamGene International BV) [NRIP1_173_195]
binds |  | FVNLYTREGQDRLAVLLPGRHPS (peptide, UniProt Q15650 149-171, looked up, Immobilised on the PamChip; source: bought: PamChip peptide microarray, PamGene International BV) [TRIP4_149_171_C171S]
binds |  | KDLRSYGVASSHLKTLLKKSKVK (peptide, UniProt P48552 173-195, looked up, Immobilised on the PamChip; source: bought: PamChip peptide microarray, PamGene International BV) [NRIP1_173_195_C177S]

Second part, the binder before the results:

Binder | binding result [1] | binding result [2]
SKNFYFNYKRRHNLDNLLQQHKQ (peptide, UniProt O75376 662-684, looked up, Immobilised on the PamChip; source: bought: PamChip peptide microarray, PamGene International BV) [NCOR1_662_684_C662S] | binds | 
VYPRPPSKTYRGAFQNLFQSVRE (peptide, UniProt P10275 10-32, looked up, Immobilised on the PamChip; also called Androgen receptor–related coregulator motif; source: bought: PamChip peptide microarray, PamGene International BV) [ANDR_10_32] |  | binds
TALLYSKRLITYRLRHLLRARSD (peptide, UniProt O15164 373-395, looked up, Immobilised on the PamChip; source: bought: PamChip peptide microarray, PamGene International BV) [TIF1A_373_395_C394S] | binds | 
GQSRLHDSKGQTKLLQLLTTKSDQ (peptide, UniProt Q15596 628-651, looked up, Immobilised on the PamChip; source: bought: PamChip peptide microarray, PamGene International BV) [NCOA2_628_651] |  | binds
TSGPQTPQAQQKSLLQQLLTE (peptide, UniProt Q15788 1421-1441, looked up, Immobilised on the PamChip; source: bought: PamChip peptide microarray, PamGene International BV) [NCOA1_1421_1441] |  | binds
SVQPPRSISPSALQDLLRTLKSP (peptide, UniProt Q92793 2055-2077, looked up, Immobilised on the PamChip; source: bought: PamChip peptide microarray, PamGene International BV) [CBP_2055_2077] | binds | 
PSSHSSLTERHKILHRLLQEGSPS (peptide, UniProt Q15788 677-700, looked up, Immobilised on the PamChip; source: bought: PamChip peptide microarray, PamGene International BV) [NCOA1_677_700] |  | binds
